Molecular target: T1, human Amyloid beta 1-42 peptide (Homo sapiens, UniProt P05067)
T1 construct: biotinylated human Amyloid beta 1-42 peptide (rpeptide, USA; cat: A1117); purchased rPeptide, USA A1117; host or cells: synthetic peptide
Assay: Surface Plasmon Resonance kinetic profiling of purified scFv (ProteOn)
Type: binding
Settings: biotinylated human Amyloid beta 1-42 on streptavidin chip
Description: Surface Plasmon Resonance was used to analyse the purified scFv clones that had shown significant improvement in binding affinity for human Amyloid beta 1-42 peptide over the parent sequence, Abet0144-GL, in the HTRF™ epitope competition assay (sections 1.3-1.6). Briefly, the ProteOn Protein Interaction Array System (BioRad, USA) was used to assess the kinetic parameters of the interaction between each purified scFv and synthetically produced human Amyloid beta 1-42 peptide. These experiments were performed essentially as described by Karlsson et al. (Karlsson et al., 1991).
The affinity of binding between each test scFv and human Amyloid beta 1-42 was estimated using assays in which biotinylated synthetic human Amyloid beta 1-42 peptide (rPeptide, USA; cat: Al 117) was non-covalently bound via a biotin/streptavidin interaction to a proprietary streptavidin chip (NTA 176-5021) at five different surface densities. The chip surface was regenerated between cycles by a single 60 second injection of 10 mM Glycine pH 2.0 to remove scFv bound to the peptide.
Each scFv at 100-200 nM was sequentially passed over the peptide surface for a sufficient amount of time to observe sensorgrams that could be fitted to an appropriate binding model with confidence. An irrelevant scFv blank was subtracted from the main dataset to reduce the impact of any buffer artefacts or non-specific binding effects. An appropriate binding model was then fitted to the data.

T1 sequence (P05067 672-713): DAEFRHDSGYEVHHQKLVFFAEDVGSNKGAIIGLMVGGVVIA

| Molecule | ka | kd |
| --- | --- | --- |
| Abet0322b: optimized anti-Aβ1-42 clone derived from Abet0144-GL (protein, left off: small tags and cut ends, optimized anti-Aβ1-42 clone derived from Abet0144-GL) scFv (part 1 of 2): EVQLLESGGGLVQPGGSLRLSCAASNEEFQYNPMWWVRQAPGKGLEWVSVIGSSGGATVYADAVKGRFTISRDNSENTLYLQMNSLRAEDTAVYYCAREWMDHSRPYYYYGMDVWGQGTLVTVSS scFv (part 2 of 2): SYELTQPPSVSVSPGQTASITCSGHNLGDKFASWYQQKPGQSPVLVIYRDDKRPSEIPERFSASNSGHTATLTISGTQATDEADYYCSSQDTVTRVFGGGTKLTVL | 203000 M⁻¹ s⁻¹ | 0.000165 s⁻¹ |
| Abet0328: optimized anti-Aβ1-42 clone derived from Abet0144-GL (protein, left off: small tags and cut ends, optimized anti-Aβ1-42 clone derived from Abet0144-GL) scFv (part 1 of 2): EVQLLESGGGLVQPGGSLRLSCAASRDPFKADTMWWVRQAPRKRLEWVSVIGAHTTNSAYADSVKGRFTISRDNSKNTLYLQMNSLRAEDTAVYYCAREWMDRSRPYYYYGMDVWGQGTLVTVSS scFv (part 2 of 2): SYELTQPPSVSVSPGQTVSITCSGRNLEDKFASWYQQKPGQSPVLVIYRDDKRPSGVPERFSASNSGHTATLTISGTQATDEADYYCSSQDTVTRVFGGGTKLTVL | 141000 M⁻¹ s⁻¹ | 0.000103 s⁻¹ |
| Abet0342: optimized anti-Aβ1-42 clone derived from Abet0144-GL (protein, left off: small tags and cut ends, optimized anti-Aβ1-42 clone derived from Abet0144-GL) scFv (part 1 of 2): EVQLLESGGGLVQPGGSLRLSCAASGFDFRRSVMWWVRQAPGKGLEWVSVIGAQTQNKAYADSVKGRFTISRDNSKNTLYLQMNSLRAEDTAVYYCAREWMDHSRPYYYYGMDVWGQGTLVTVSS scFv (part 2 of 2): SYELTQPPSVSVSPGQTASITCSGHNLEDKFASWYQQKPGQSPVLVIYRDDKRPSGIPERFSASNSGDTATLTISGTQAMDEADYYCQAQDSTTRVFGGGTKLTVL | 136000 M⁻¹ s⁻¹ | 5.73e-05 s⁻¹ |
| Abet0329: optimized anti-Aβ1-42 clone derived from Abet0144-GL (protein, left off: small tags and cut ends, optimized anti-Aβ1-42 clone derived from Abet0144-GL) scFv (part 1 of 2): EVQLLESGGGLVQPGGSLRLSCAASTFNLKRETMWWVRQAPGKGLEWVSVIGSHQERTSYADSVKGRFTISRDNSKNTLYLQMNSLRAEDTAVYYCAREWMDHSRPYYYYGMDVWGQGTLVTVSS scFv (part 2 of 2): SYELTQPPSVSVSPGQTASITCSGHNVSDKWMTWYQQKPGQSPVLVIYRDDKRPSGIPERFSASNSGHTATLTISGTQATDEADYYCSSQDTVTRVFGGGTKLTVL | 197000 M⁻¹ s⁻¹ | 0.000138 s⁻¹ |
| Abet0323b: optimized anti-Aβ1-42 clone derived from Abet0144-GL (protein, left off: small tags and cut ends, optimized anti-Aβ1-42 clone derived from Abet0144-GL) scFv (part 1 of 2): EVQLLESGGGLVQPGGSLRLSCAASTSTFQEDTMWWVRQAPGKGLEWVSVIGPNPKNNAYADSVKGRFTISRDNSKNTLYLQMNSLRAEDTAVYYCAREWMDHSRPYYYYGMDVWGQGTLVTVSS scFv (part 2 of 2): SYELTQPPSVSVSPGQTASITCSGHNLEDKFASWYQQKPGQSPVLVIYRDDKRPSGVPERFSASNSGHTATLTISGTQATDEADYYCSSQDTVTRVFGGGTKLIVL | 210000 M⁻¹ s⁻¹ | 0.000188 s⁻¹ |
| Abet0332: optimized anti-Aβ1-42 clone derived from Abet0144-GL (protein, left off: small tags and cut ends, optimized anti-Aβ1-42 clone derived from Abet0144-GL) scFv (part 1 of 2): EVQLLESGGGLVQPGESLRLSCAASSDSWHTDIMWWVRQAPGKRLEWVSVIGNSNKKIAYADSVKGRFTISRDNSKNTLYLQMNSLRAEDTAVYYCAREWMDHSRPYYYYGMDVWGQGTLVTVSS scFv (part 2 of 2): SYELTQPPSVSVSPGQTASITCSGHNIGAKWVSWYQQKPGQSPILVIYRDDKRPSGIPERFSASNSGHTATLTISGTQATDEADYYCQAQGQVTRSFGGGTKLTVL | 329000 M⁻¹ s⁻¹ | 0.000129 s⁻¹ |

Reference: patent US20190262327A1, “COMBINATION OF A BACE INHIBITOR AND AN ANTIBODY OR ANTIGEN-BINDING FRAGMENT FOR THE TREATMENT OF A DISORDER ASSOCIATED WITH THE ACCUMULATION OF AMYLOID BETA” (ASTRAZENECA AB, priority 2016, published 2019)
